Laboratory results: US20030100484A1

Molecular target: urotensin II receptor (human) (UniProt Q9UKP6)
Assay: cell-based or functional assay

Chain of UniProt Q9UKP6 (Q9UKP6 whole entry): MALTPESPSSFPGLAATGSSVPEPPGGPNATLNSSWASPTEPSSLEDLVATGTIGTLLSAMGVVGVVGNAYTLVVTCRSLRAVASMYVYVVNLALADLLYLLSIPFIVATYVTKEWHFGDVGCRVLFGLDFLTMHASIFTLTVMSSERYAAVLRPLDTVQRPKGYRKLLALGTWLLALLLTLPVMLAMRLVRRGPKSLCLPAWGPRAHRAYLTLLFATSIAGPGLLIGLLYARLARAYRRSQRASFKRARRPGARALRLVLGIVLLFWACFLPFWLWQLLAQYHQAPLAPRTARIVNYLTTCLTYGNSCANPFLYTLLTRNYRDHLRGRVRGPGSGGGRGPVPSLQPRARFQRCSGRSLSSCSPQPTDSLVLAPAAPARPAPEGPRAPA

CTGF mRNA (real-time PCR, GAPDH mRNA as reference) in human heart fibroblasts after 6 h with 1 µM urotensin II; control 0.45 +/- 0.27 (relative to GAPDH mRNA): 0.88
Col 1 mRNA (real-time PCR, GAPDH mRNA as reference) in human heart fibroblasts after 6 h with 1 µM urotensin II; control 0.56 +/- 0.1 (relative to GAPDH mRNA): 0.92
MMP 2 mRNA (real-time PCR, GAPDH mRNA as reference) in human heart fibroblasts after 6 h with 1 µM urotensin II; control 0.43 +/- 0.2 (relative to GAPDH mRNA): 0.65
TGFbeta1 mRNA (real-time PCR, GAPDH mRNA as reference) in human heart fibroblasts after 6 h with 1 µM urotensin II; control 0.60 +/- 0.09 (relative to GAPDH mRNA): 0.81
Substance: urotensin II (from UniProt O95399 114-124) (peptide)
